Where a chain is given by its changes, count along the chain named.
Assays:
[1] = target: T1, variant nuclease E154G combination (P14R, D32R, I61R, E311R, E154G); experiment: cell_activity; PAM 5'-TTTA-3'; settings: tags: pcDNA3.1 expression
T1 chain: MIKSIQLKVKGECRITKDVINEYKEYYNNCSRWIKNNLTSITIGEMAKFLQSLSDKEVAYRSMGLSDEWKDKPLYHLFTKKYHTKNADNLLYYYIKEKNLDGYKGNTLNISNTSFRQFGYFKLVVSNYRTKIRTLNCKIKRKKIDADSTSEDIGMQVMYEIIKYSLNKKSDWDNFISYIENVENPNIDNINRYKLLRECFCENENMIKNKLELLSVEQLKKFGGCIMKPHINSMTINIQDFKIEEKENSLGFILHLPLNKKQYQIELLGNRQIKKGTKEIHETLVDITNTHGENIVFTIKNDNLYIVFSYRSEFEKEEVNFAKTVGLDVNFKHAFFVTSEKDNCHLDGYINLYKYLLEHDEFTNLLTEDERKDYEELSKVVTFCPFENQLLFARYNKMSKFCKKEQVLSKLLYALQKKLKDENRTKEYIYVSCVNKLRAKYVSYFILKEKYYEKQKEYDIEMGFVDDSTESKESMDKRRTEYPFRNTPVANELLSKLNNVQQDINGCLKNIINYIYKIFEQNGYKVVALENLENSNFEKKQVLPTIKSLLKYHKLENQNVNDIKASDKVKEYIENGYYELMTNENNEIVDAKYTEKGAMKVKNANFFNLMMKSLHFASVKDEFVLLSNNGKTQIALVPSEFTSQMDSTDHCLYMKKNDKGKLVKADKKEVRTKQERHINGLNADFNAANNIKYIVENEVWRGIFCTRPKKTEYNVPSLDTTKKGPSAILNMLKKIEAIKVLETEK
In short: (§1)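 HEK293T cells were lipofected with nuclease plasmid (pcDNA3.1 backbone) plus RNA guide plasmid, with guide omitted in negative controls. After ~72 h cells were lysed in QuickExtract and % indels were derived from NGS reads, averaged over two bioreplicates and two technical replicates.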

[2] = target: T2, variant nuclease 7 substitutions D590G/E154G/E736G (P14R, D32R, I61R, E311R, D590G, E154G, E736G); experiment: cell_activity; PAM 5'-TTTA-3'; settings: tags: pcDNA3.1 expression
T2 chain: T1 chain with D590G, E736G
In short: as §1

B1: VEGFA crRNA ; VEGFA target (ssRNA ; dsDNA)
RNA: CUUGUUGUAUAUGUCCUUUUAUAGGUAUUAAACAACUCCAGACCACCAAUGGGCAC
DNA 1: TCCAGACCACCAATGGGCAC
DNA 2: GTGCCCATTGGTGGTCTGGA
indel activity [1]: 2.65 fold of WT
indel activity [2]: 3.13 fold of WT

Reference: patent publication US20240035010, “COMPOSITIONS COMPRISING A VARIANT POLYPEPTIDE AND USES THEREOF” (Arbor Biotechnologies, Inc., published 2024)
